Experimental findings from paper PMC11217426, “RNA-guided RNA silencing by an Asgard archaeal Argonaute” are described below.

The target of data set [1] is T1, HrAgo1 (Candidatus Harpocratesius repetitus …, UniProt A0AAT8XUE3 1-817).
T1 sequence: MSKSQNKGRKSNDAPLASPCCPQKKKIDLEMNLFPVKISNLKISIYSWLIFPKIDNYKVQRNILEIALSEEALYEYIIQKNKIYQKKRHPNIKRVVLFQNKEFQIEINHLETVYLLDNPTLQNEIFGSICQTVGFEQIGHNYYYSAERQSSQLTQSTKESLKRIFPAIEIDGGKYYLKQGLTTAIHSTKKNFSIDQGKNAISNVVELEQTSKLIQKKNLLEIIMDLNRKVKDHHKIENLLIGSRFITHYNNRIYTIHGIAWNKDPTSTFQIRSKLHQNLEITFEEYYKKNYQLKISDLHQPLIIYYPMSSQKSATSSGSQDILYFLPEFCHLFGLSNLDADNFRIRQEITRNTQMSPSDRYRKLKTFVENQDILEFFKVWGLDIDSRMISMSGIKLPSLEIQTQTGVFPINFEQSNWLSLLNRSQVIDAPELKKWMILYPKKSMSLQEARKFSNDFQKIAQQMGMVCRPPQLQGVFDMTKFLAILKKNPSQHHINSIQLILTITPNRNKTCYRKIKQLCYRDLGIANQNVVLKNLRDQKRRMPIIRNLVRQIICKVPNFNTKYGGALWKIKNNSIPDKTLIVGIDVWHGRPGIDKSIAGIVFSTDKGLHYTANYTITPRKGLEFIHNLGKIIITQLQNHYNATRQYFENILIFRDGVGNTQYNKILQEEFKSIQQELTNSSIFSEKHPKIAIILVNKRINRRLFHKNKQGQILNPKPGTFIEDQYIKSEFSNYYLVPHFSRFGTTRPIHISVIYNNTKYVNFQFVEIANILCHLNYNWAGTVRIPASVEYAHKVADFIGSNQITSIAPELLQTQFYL
The experiment in a line: cryo-EM structure; 5 mM MgCl2; smFRET: 50 mM Tris-HCl pH 8.0, 500 mM NaCl (50 mM for EfPiwi), 1 mM Trolox, glucose oxidase/catalase, 22 C; cryo-EM: 5 mM HEPES pH 7.5, 250 mM KCl, 5 mM MgCl2. The note with it: protein: recombinant; tags: His-MBP removed by TEV; single strand; only 6 nt modelled.

Data set [2] addresses T1, HrAgo1. The experiment in a line: single-molecule FRET; 500 mM NaCl; majority dwell > 200 s, plus transient sub-population; smFRET: 50 mM Tris-HCl pH 8.0, 500 mM NaCl (50 mM for EfPiwi), 1 mM Trolox, glucose oxidase/catalase, 22 C; cryo-EM: 5 mM HEPES pH 7.5, 250 mM KCl, 5 mM MgCl2. The note with it: protein: recombinant, tags: His-MBP removed by TEV, label: Cy5 guide, Cy3 target, 3' biotin target.

The target of data set [3] is T1, HrAgo1. The experiment in a line: single-molecule FRET; 500 mM NaCl; stable binding, dwell > 200 s; smFRET: 50 mM Tris-HCl pH 8.0, 500 mM NaCl (50 mM for EfPiwi), 1 mM Trolox, glucose oxidase/catalase, 22 C; cryo-EM: 5 mM HEPES pH 7.5, 250 mM KCl, 5 mM MgCl2. The conditions noted are these: protein: recombinant; tags: His-MBP removed by TEV; label: Cy5 guide, Cy3 target, 3' biotin target; guide nt 2-16 pair.

B1: let-7a guide RNA (cryo-EM) (ssRNA)
RNA: UGAGGUAGUAGGUUGUAUAGU
modifications: 5' phosphate
B1: the binding result in the data set with HrAgo1 [1] is recorded as “binds”.

B2: guide N6 / target N6 (dsRNA)
RNA 1: UGAGGUAUUUUUUUUUUUUUUU
RNA 2: UUUUUUUUUUUUUUUUUUUCUACCUCUUUUUUUUUUUUUUUUUUUUUUUUUUUUUUU
modifications: guide 5' phosphate; 5-LC-N-U at guide nt 9 and target nt 11
As to B2, in the data set with HrAgo1 [2] (guide nt 2-7 pair), the binding result was “binds”.

B3: guide N15 / target N15 (dsRNA)
RNA 1: UGAGGUAGUAGGUUGUUUUUUU
RNA 2: UUUUUUUUUUUACAACCUACUACCUCUUUUUUUUUUUUUUUUUUUUUUUUUUUUUUU
modifications: guide 5' phosphate; 5-LC-N-U at guide nt 9 and target nt 11
In the case of B3, the binding result with HrAgo1 [3] is recorded as “binds”.

B4: guide N8 / target N8 (dsRNA)
RNA 1: UGAGGUAGUUUUUUUUUUUUUU
RNA 2: UUUUUUUUUUUUUUUUUUACUACCUCUUUUUUUUUUUUUUUUUUUUUUUUUUUUUUU
modifications: guide 5' phosphate; 5-LC-N-U at guide nt 9 and target nt 11
For the molecule B4, in the data set with HrAgo1 [2] (guide nt 2-9 pair), the binding result is “binds”.
